# How the values were obtained:
# [1] = system: GFP-14-3-3β; assay: GFP-14-3-3β co-IP with LC-MS/MS, untreated GFP-14-3-3β versus GFP control (14-3-3 interactome); assay type: binding, human; conditions: label-free quantification, 3 replicates each
# [2] = system: GFP-14-3-3β and its binding proteins; assay: GFP-14-3-3β co-IP with LC-MS/MS label-free quantification, untreated versus PP1c-treated; parameters: species or system human; conditions: label-free quantification, 3 replicates each
# [3] = GFP-14-3-3β co-IP LC-MS/MS, untreated vs GFP, student's t-test
# [4] = GFP-14-3-3β co-IP LC-MS/MS, PP1 vs untreated, student's t-test
"Difference (log2), PP1 vs untreated [2, 4]","Difference (log2), PP1 vs untreated ([2]; log2 difference, pairwise comparison PP1 vs untreated)",Molecule,"Difference (log2), untreated vs GFP [1, 3]","Difference (log2), untreated vs GFP ([1]; log2 difference, pairwise comparison untreated vs GFP)"
-0.2324 log2,–,"NAT10 (protein, UniProt Q9H0A0 1-1025, looked up) RNA cytidine acetyltransferase: MHRKKVDNRIRILIENGVAERQRSLFVVVGDRGKDQVVILHHMLSKATVKARPSVLWCYKKELGFSSHRKKRMRQLQKKIKNGTLNIKQDDPFELFIAATNIRYCYYNETHKILGNTFGMCVLQDFEALTPNLLARTVETVEGGGLVVILLRTMNSLKQLYTVTMDVHSRYRTEAHQDVVGRFNERFILSLASCKKCLVIDDQLNILPISSHVATMEALPPQTPDESLGPSDLELRELKESLQDTQPVGVLVDCCKTLDQAKAVLKFIEGISEKTLRSTVALTAARGRGKSAALGLAIAGAVAFGYSNIFVTSPSPDNLHTLFEFVFKGFDALQYQEHLDYEIIQSLNPEFNKAVIRVNVFREHRQTIQYIHPADAVKLGQAELVVIDEAAAIPLPLVKSLLGPYLVFMASTINGYEGTGRSLSLKLIQQLRQQSAQSQVSTTAENKTTTTARLASARTLYEVSLQESIRYAPGDAVEKWLNDLLCLDCLNITRIVSGCPLPEACELYYVNRDTLFCYHKASEVFLQRLMALYVASHYKNSPNDLQMLSDAPAHHLFCLLPPVPPTQNALPEVLAVIQVCLEGEISRQSILNSLSRGKKASGDLIPWTVSEQFQDPDFGGLSGGRVVRIAVHPDYQGMGYGSRALQLLQMYYEGRFPCLEEKVLETPQEIHTVSSEAVSLLEEVITPRKDLPPLLLKLNERPAERLDYLGVSYGLTPRLLKFWKRAGFVPVYLRQTPNDLTGEHSCIMLKTLTDEDEADQGGWLAAFWKDFRRRFLALLSYQFSTFSPSLALNIIQNRNMGKPAQPALSREELEALFLPYDLKRLEMYSRNMVDYHLIMDMIPAISRIYFLNQLGDLALSAAQSALLLGIGLQHKSVDQLEKEIELPSGQLMGLFNRIIRKVVKLFNEVQEKAIEEQMVAAKDVVMEPTMKTLSDDLDEAAKEFQEKHKKEVGKLKSMDLSEYIIRGDDEEWNEVLNKAGPNASIISLKSDKKRKLEAKQEPKQSKKLKNRETKNKKDMKLKRKK",2.262 log2,–
-0.2137 log2,–,"GEMIN8 (protein, UniProt Q9NWZ8 1-242, looked up) Gem-associated protein 8: MAAVKASTSKATRPWYSHPVYARYWQHYHQAMAWMQSHHNAYRKAVESCFNLPWYLPSALLPQSSYDNEAAYPQSFYDHHVAWQDYPCSSSHFRRSGQHPRYSSRIQASTKEDQALSKEEEMETESDAEVECDLSNMEITEELRQYFAETERHREERRRQQQLDAERLDSYVNADHDLYCNTRRSVEAPTERPGERRQAEMKRLYGDSAAKIQAMEAAVQLSFDKHCDRKQPKYWPVIPLKF",0.1049 log2,–

# Further lines, the molecule ahead of its results:
Molecule,"Difference (log2), PP1 vs untreated [2, 4]","Difference (log2), PP1 vs untreated ([2]; log2 difference, pairwise comparison PP1 vs untreated)","Difference (log2), untreated vs GFP [1, 3]","Difference (log2), untreated vs GFP ([1]; log2 difference, pairwise comparison untreated vs GFP)"
"TFCP2 (protein, UniProt Q12800 1-502, looked up) Alpha-globin transcription …: MAWALKLPLADEVIESGLVQDFDASLSGIGQELGAGAYSMSDVLALPIFKQEESSLPPDNENKILPFQYVLCAATSPAVKLHDETLTYLNQGQSYEIRMLDNRKLGELPEINGKLVKSIFRVVFHDRRLQYTEHQQLEGWRWNRPGDRILDIDIPMSVGIIDPRANPTQLNTVEFLWDPAKRTSVFIQVHCISTEFTMRKHGGEKGVPFRVQIDTFKENENGEYTEHLHSASCQIKVFKPKGADRKQKTDREKMEKRTPHEKEKYQPSYETTILTECSPWPEITYVNNSPSPGFNSSHSSFSLGEGNGSPNHQPEPPPPVTDNLLPTTTPQEAQQWLHRNRFSTFTRLFTNFSGADLLKLTRDDVIQICGPADGIRLFNALKGRMVRPRLTIYVCQESLQLREQQQQQQQQQQKHEDGDSNGTFFVYHAIYLEELTAVELTEKIAQLFSISPCQISQIYKQGPTGIHVLISDEMIQNFQEEACFILDTMKAETNDSYHIILK",-0.2131 log2,–,0.6477 log2,–
"KIFC3 (protein, UniProt Q9BVG8 1-833, looked up) Kinesin-like protein KIFC3: MVPSRRTWNLGATPSLRGLWRVGRAPEPEPGMARPAPAPASPAARPFPHTGPGRLRTGRGKDTPVCGDEDSSARSAARPALAQCRALSVDWAGPGSPHGLYLTLQVEHLKEKLISQAQEVSRLRSELGGTDLEKHRDLLMVENERLRQEMRRCEAELQELRTKPAGPCPGCEHSQESAQLRDKLSQLQLEMAESKGMLSELNLEVQQKTDRLAEVELRLKDCLAEKAQEEERLSRRLRDSHETIASLRAQSPPVKYVIKTVEVESSKTKQALSESQARNQHLQEQVAMQRQVLKEMEQQLQSSHQLTARLRAQIAMYESELERAHGQMLEEMQSLEEDKNRAIEEAFARAQVEMKAVHENLAGVRTNLLTLQPALRTLTNDYNGLKRQVRGFPLLLQEALRSVKAEIGQAIEEVNSNNQELLRKYRRELQLRKKCHNELVRLKGNIRVIARVRPVTKEDGEGPEATNAVTFDADDDSIIHLLHKGKPVSFELDKVFSPQASQQDVFQEVQALVTSCIDGFNVCIFAYGQTGAGKTYTMEGTAENPGINQRALQLLFSEVQEKASDWEYTITVSAAEIYNEVLRDLLGKEPQEKLEIRLCPDGSGQLYVPGLTEFQVQSVDDINKVFEFGHTNRTTEFTNLNEHSSRSHALLIVTVRGVDCSTGLRTTGKLNLVDLAGSERVGKSGAEGSRLREAQHINKSLSALGDVIAALRSRQGHVPFRNSKLTYLLQDSLSGDSKTLMVVQVSPVEKNTSETLYSLKFAERVRSVELGPGLRRAELGSWSSQEHLEWEPACQTPQPSARAHSAPSSGTSSRPGSIRRKLQPSGKSRPLPV",-0.1977 log2,–,1.361 log2,–
"ILF3 (protein, UniProt Q12906 1-894, looked up) Interleukin enhancer-binding …: MRPMRIFVNDDRHVMAKHSSVYPTQEELEAVQNMVSHTERALKAVSDWIDEQEKGSSEQAESDNMDVPPEDDSKEGAGEQKTEHMTRTLRGVMRVGLVAKGLLLKGDLDLELVLLCKEKPTTALLDKVADNLAIQLAAVTEDKYEILQSVDDAAIVIKNTKEPPLSLTIHLTSPVVREEMEKVLAGETLSVNDPPDVLDRQKCLAALASLRHAKWFQARANGLKSCVIVIRVLRDLCTRVPTWGPLRGWPLELLCEKSIGTANRPMGAGEALRRVLECLASGIVMPDGSGIYDPCEKEATDAIGHLDRQQREDITQSAQHALRLAAFGQLHKVLGMDPLPSKMPKKPKNENPVDYTVQIPPSTTYAITPMKRPMEEDGEEKSPSKKKKKIQKKEEKAEPPQAMNALMRLNQLKPGLQYKLVSQTGPVHAPIFTMSVEVDGNSFEASGPSKKTAKLHVAVKVLQDMGLPTGAEGRDSSKGEDSAEETEAKPAVVAPAPVVEAVSTPSAAFPSDATAEQGPILTKHGKNPVMELNEKRRGLKYELISETGGSHDKRFVMEVEVDGQKFQGAGSNKKVAKAYAALAALEKLFPDTPLALDANKKKRAPVPVRGGPKFAAKPHNPGFGMGGPMHNEVPPPPNLRGRGRGGSIRGRGRGRGFGGANHGGYMNAGAGYGSYGYGGNSATAGYSQFYSNGGHSGNASGGGGGGGGGSSGYGSYYQGDNYNSPVPPKHAGKKQPHGGQQKPSYGSGYQSHQGQQQSYNQSPYSNYGPPQGKQKGYNHGQGSYSYSNSYNSPGGGGGSDYNYESKFNYSGSGGRSGGNSYGSGGASYNPGSHGGYGGGSGGGSSYQGKQGGYSQSNYNSPGSGQNYSGPPSSYQSSQGGYGRNADHSMNYQYR",-0.2231 log2,–,3.029 log2,–
"FAM120A (protein, UniProt Q9NZB2 1-1118, looked up) Constitutive coactivator of …: MGVQGFQDYIEKHCPSAVVPVELQKLARGSLVGGGRQRPPQTPLRLLVDADNCLHRLYGGFYTDWVSGGQWNHMLGYLAALAKACFGGNIELFVFFNGALEKARLHEWVKRQGNERQTAQQIVSHVQNKGTPPPKVWFLPPVCMAHCIRLALIRFHVKVAQSIEDHHQEVIGFCRENGFHGLVAYDSDYALCNIPYYFSAHALKLSRNGKSLTTSQYLMHEVAKQLDLNPNRFPIFAALLGNHILPDEDLASFHWSLLGPEHPLASLKVRAHQLVLPPCDVVIKAVADYVRNIQDTSDLDAIAKDVFQHSQSRTDDKVIRFKRAIGYYSATSKPMSFHPPHYLAARPGPFGMPGMVPPHVPPQMLNIPQTSLQAKPVAPQVPSPGGAPGQGPYPYSLSEPAPLTLDTSGKNLTEQNSYSNIPHEGKHTPLYERSSPINPAQSGSPNHVDSAYFPGSSTSSSSDNDEGSGGATNHISGNKIGWEKTGSHSEPQARGDPGDQTKAEGSSTASSGSQLAEGKGSQMGTVQPIPCLLSMPTRNHMDITTPPLPPVAPEVLRVAEHRHKKGLMYPYIFHVLTKGEIKIAVSIEDEANKDLPPAALLYRPVRQYVYGVLFSLAESRKKTERLAFRKNRLPPEFSPVIIKEWAAYKGKSPQTPELVEALAFREWTCPNLKRLWLGKAVEDKNRRMRAFLACMRSDTPAMLNPANVPTHLMVLCCVLRYMVQWPGARILRRQELDAFLAQALSPKLYEPDQLQELKIENLDPRGIQLSALFMSGVDMALFANDACGQPIPWEHCCPWMYFDGKLFQSKLLKASREKTPLIDLCDGQADQAAKVEKMRQSVLEGLSFSRQSHTLPFPPPPALPFYPASAYPRHFGPVPPSQGRGRGFAGVCGFGGPYGETVATGPYRAFRVAAASGHCGAFSGSDSSRTSKSQGGVQPIPSQGGKLEIAGTVVGHWAGSRRGRGGRGPFPLQVVSVGGPARGRPRGVISTPVIRTFGRGGRYYGRGYKNQAAIQGRPPYAASAEEVAKELKSKSGESKSSAMSSDGSLAENGVMAEEKPAPQMNGSTGDARAPSHSESALNNDSKTCNTNPHLNALSTDSACRREAALEAAVLNKEE",–,1.725,–,-0.07006
"WDR36 (protein, UniProt Q8NI36 1-895, looked up) WD repeat-containing protein …: MERASERRTASALFAGFRALGLFSNDIPHVVRFSALKRRFYVTTCVGKSFHTYDVQKLSLVAVSNSVPQDICCMAADGRLVFAAYGNVFSAFARNKEIVHTFKGHKAEIHFLQPFGDHIISVDTDGILIIWHIYSEEEYLQLTFDKSVFKISAILHPSTYLNKILLGSEQGSLQLWNVKSNKLLYTFPGWKVGVTALQQAPAVDVVAIGLMSGQVIIHNIKFNETLMKFRQDWGPITSISFRTDGHPVMAAGSPCGHIGLWDLEDKKLINQMRNAHSTAIAGLTFLHREPLLVTNGADNALRIWIFDGPTGEGRLLRFRMGHSAPLTNIRYYGQNGQQILSASQDGTLQSFSTVHEKFNKSLGHGLINKKRVKRKGLQNTMSVRLPPITKFAAEEARESDWDGIIACHQGKLSCSTWNYQKSTIGAYFLKPKELKKDDITATAVDITSCGNFAVIGLSSGTVDVYNMQSGIHRGSFGKDQAHKGSVRGVAVDGLNQLTVTTGSEGLLKFWNFKNKILIHSVSLSSSPNIMLLHRDSGILGLALDDFSISVLDIETRKIVREFSGHQGQINDMAFSPDGRWLISAAMDCSIRTWDLPSGCLIDCFLLDSAPLNVSMSPTGDFLATSHVDHLGIYLWSNISLYSVVSLRPLPADYVPSIVMLPGTCQTQDVEVSEETVEPSDELIEYDSPEQLNEQLVTLSLLPESRWKNLLNLDVIKKKNKPKEPPKVPKSAPFFIPTIPGLVPRYAAPEQNNDPQQSKVVNLGVLAQKSDFCLKLEEGLVNNKYDTALNLLKESGPSGIETELRSLSPDCGGSIEVMQSFLKMIGMMLDRKRDFELAQAYLALFLKLHLKMLPSEPVLLEEITNLSSQVEENWTHLQSLFNQSMCILNYLKSALL",-0.2458 log2,–,1.174 log2,–

# Source: paper PMC7367873, “Dissecting the sequence determinants for dephosphorylation by the catalytic subunits of phosphatases PP1 and PP2A” (Nature Communications, 2020)
